Bridge positions count the residues as written; N and C are the ends. Square brackets hold non-standard residues; d marks the D form. 1Nal = N[C@@H](Cc1cccc2ccccc12)C(=O)O; 2Nal = N[C@@H](Cc1ccc2ccccc2c1)C(=O)O; d2Nal = N[C@H](Cc1ccc2ccccc2c1)C(=O)O
Columns and labels:
Assay in all cases: cell-based or functional assay
[1] = target: hMC1-R (human) (UniProt Q01726)
[2] = target: hMC3-R (human) (UniProt P41968)
[3] = target: hMC4-R (human) (UniProt P32245)
[4] = target: hMC5-R (human) (UniProt P33032)
hMC5-R (human), sequence (P33032 whole entry): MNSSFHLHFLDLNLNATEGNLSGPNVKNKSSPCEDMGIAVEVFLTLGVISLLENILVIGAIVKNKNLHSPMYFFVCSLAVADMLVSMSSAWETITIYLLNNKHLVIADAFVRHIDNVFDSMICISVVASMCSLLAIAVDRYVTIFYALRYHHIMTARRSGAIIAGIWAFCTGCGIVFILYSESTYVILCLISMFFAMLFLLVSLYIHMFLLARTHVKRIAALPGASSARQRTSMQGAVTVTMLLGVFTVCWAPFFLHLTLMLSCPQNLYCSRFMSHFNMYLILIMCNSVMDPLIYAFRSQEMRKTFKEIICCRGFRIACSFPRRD

hMC4-R (human), sequence (P32245 whole entry): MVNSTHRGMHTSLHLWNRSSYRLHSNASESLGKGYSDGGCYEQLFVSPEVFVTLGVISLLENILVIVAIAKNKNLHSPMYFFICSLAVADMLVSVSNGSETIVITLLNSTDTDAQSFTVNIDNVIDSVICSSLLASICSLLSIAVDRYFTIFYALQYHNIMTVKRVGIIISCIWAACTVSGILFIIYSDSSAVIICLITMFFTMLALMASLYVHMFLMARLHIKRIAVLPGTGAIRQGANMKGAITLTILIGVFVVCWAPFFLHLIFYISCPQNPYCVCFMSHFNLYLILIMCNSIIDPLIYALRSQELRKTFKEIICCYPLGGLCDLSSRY
hMC3-R (human), sequence (P41968 whole entry): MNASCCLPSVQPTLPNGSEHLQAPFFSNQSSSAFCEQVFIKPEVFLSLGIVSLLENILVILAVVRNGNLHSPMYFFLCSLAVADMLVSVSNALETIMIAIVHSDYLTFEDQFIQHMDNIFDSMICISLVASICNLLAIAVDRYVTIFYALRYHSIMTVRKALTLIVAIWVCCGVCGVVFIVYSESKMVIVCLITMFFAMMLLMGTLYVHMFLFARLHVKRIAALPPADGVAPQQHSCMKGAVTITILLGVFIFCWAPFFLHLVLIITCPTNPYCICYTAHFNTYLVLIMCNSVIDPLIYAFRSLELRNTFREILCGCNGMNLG
hMC1-R (human), sequence (Q01726 whole entry): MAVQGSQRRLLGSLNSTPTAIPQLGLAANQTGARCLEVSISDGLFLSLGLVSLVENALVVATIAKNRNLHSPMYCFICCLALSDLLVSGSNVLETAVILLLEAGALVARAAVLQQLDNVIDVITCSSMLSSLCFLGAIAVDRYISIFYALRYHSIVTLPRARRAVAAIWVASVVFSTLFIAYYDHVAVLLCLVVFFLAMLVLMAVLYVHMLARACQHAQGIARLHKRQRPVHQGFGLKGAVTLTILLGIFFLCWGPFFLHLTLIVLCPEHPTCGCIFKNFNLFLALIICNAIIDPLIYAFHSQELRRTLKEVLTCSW

| Substance | cAMP EC50 [1] | cAMP EC50 [2] [nM] | cAMP EC50 [3] [nM] | cAMP EC50 [4] [nM] | cAMP Kb [2] | cAMP Kb [3] |
| --- | --- | --- | --- | --- | --- | --- |
| Ac-1-Nal-Arg-c(Cys-D-Ala-His-D-Phe-Arg-Trp-Cys)-NH2 (peptide; unit assumed) | 8.67 nM | 4.21 | 0.363 | 1320 | – | – |
| Ac-2-Nal-Arg-c(Cys-D-Ala-His-D-Phe-Arg-Trp-Cys)-NH2 (peptide; unit assumed) | 9.66 nM | 6.11 | 0.275 | 1730 | – | – |
| Ac-Arg-c(Asp-His-D-Phe-Arg-Trp-Ala-Lys)-NH2 (peptide; unit assumed) | 1.39 nM | 2.89 | 0.055 | 467 | – | – |
| Ac-Arg-c(Cys-D-Ala-His-D-2-Nal-Arg-Trp-Cys)-NH2 (peptide; unit assumed) | 193 nM | – | – | 1110 | 5.72 nM | 1.58 nM |
| Ac-Arg-c(Cys-D-Ala-His-D-Phe-Arg-Trp-Cys)-NH2 (peptide; unit assumed) | – | – | – | 1630 | – | – |
| Ac-Arg-c(Cys-D-Ala-His-D-Phe-Arg-Trp-Pen)-NH2 (peptide; unit assumed) | 48.3 nM | 13.3 | – | 10000 | – | – |
| Ac-CEH[d2Nal]R[1Nal]ACPPKD-NH2 (disulfide 1-8) [listing 1 of 2 here] | 269 | – | – | – | 105 | 5.92 |
| Ac-CEH[d2Nal]R[1Nal]ACPPKD-NH2 (disulfide 1-8) [listing 2 of 2 here] | – | – | – | 104 | – | – |
| Ac-CEH[d2Nal]R[2Nal]ACPPKD-NH2 (disulfide 1-8) [listing 1 of 2 here] | 33.6 | – | – | – | 140 | 12.2 |
| Ac-CEH[d2Nal]R[2Nal]ACPPKD-NH2 (disulfide 1-8) [listing 2 of 2 here] | – | – | – | 66.9 | – | – |
| Ac-Cha-c(Asp-His-D-2-Nal-Arg-Trp-Gaba-Lys)-NH2 (peptide; unit assumed) | 1.27 nM | – | – | 0.736 | 3.02 nM | 0.442 nM |
| Ac-D-Arg-c(Cys-D-Ala-His-D-Phe-Arg-Trp-Cys)-NH2 (peptide; unit assumed) | – | – | – | 1020 | – | – |
| Ac-D-Arg-c(Cys-D-Ala-His-D-Phe-Arg-Trp-Pen)-NH2 (peptide; unit assumed) | 26.5 nM | 10.5 | – | 2440 | – | – |
| Ac-Nle-c(Asp-His-D-2-Nal-Arg-Trp-Ala-Lys)-NH2 (peptide; unit assumed) | 0.619 nM | – | – | – | – | – |
| Ac-Nle-c(Asp-His-D-2-Nal-Arg-Trp-Lys)-β-Ala-Tyr-Gly-Arg-Lys-Lys-Arg-Arg-Gln-Arg-Arg-Arg-NH2 (peptide; in nM (unit assumed)) | – | – | – | – | 220 | 4.07 |
| Ac-Nle-c(Asp-His-D-2-Nal-Arg-Trp-Lys)-β-Ala-β-Ala-Tyr-Gly-Arg-Lys-Lys-Arg-Arg-Gln-Arg-Arg-Arg-NH2 (peptide; in nM (unit assumed)) | 1.39 | – | – | – | 16.2 | 7.94 |
| Ac-Nle-c(Asp-His-D-2-Nal-Arg-Trp-Lys)-β-Ala-β-Ala-Tyr-Gly-Arg-Lys-Lys-Arg-Arg-Gln-Arg-Arg-Arg-NH2 (peptide; unit assumed) | – | – | – | 0.839 | – | – |
| Ac-Nle-c(Asp-His-D-2-Nal-Arg-Trp-β-Ala-Lys)-NH2 (peptide; unit assumed) | 0.913 nM | – | – | – | – | – |
| Ac-Nle-c(Pen-D-Ala-His-D-Phe-Arg-Trp-Cys)-NH2 (peptide; unit assumed) | – | 1.89 | 0.531 | – | – | – |
| Ac-Tyr-Arg-c(Cys-D-Ala-His-D-Phe-Arg-Trp-Cys)-NH2 (peptide; unit assumed) | – | 2.39 | – | 1540 | – | – |
| Ac-c(Cys-Glu-His-D-2-Nal-Arg-Bal-Ala-Cys)-Pro-Pro-Lys-Asp-NH2 (peptide; in nM (unit assumed)) | 690 | – | – | – | 70.7 | 4.56 |
| Ac-c(Cys-Glu-His-D-2-Nal-Arg-Bal-Ala-Cys)-Pro-Pro-Lys-Asp-NH2 (peptide; unit assumed) | – | – | – | 177 | – | – |
| Ac-c(Cys-Glu-His-D-2-Nal-Arg-Trp-Ala-Cys)-Pro-Pro-Lys-Asp-β-Ala-Tyr-Gly-Arg-Lys-Lys-Arg-Arg-Gln-Arg-Arg-Arg-NH2 (peptide; in nM (unit assumed)) | 6.3 | – | – | – | 70 | 1.66 |
| Ac-c(Cys-Glu-His-D-2-Nal-Arg-Trp-Ala-Cys)-Pro-Pro-Lys-Asp-β-Ala-Tyr-Gly-Arg-Lys-Lys-Arg-Arg-Gln-Arg-Arg-Arg-NH2 (peptide; unit assumed) | – | – | – | 38.2 | – | – |
| Hydantoin(C(O)-(A6c-Nle))-c(Cys-D-Ala-His-D-Phe-Arg-Trp-Cys)-NH2 (peptide; unit assumed) | – | – | 1.8 | – | – | – |
| Hydantoin(C(O)-(Ala-Gly))-c(Cys-D-Ala-His-D-Phe-Arg-Trp-Cys)-NH2 (peptide) | – | – | – | 516 | – | – |
| Hydantoin(C(O)-(Ala-Gly))-c(Cys-D-Ala-His-D-Phe-Arg-Trp-Cys)-NH2 (peptide; unit assumed) | 17.6 nM | 2.23 | 0.241 | – | – | – |
| Hydantoin(C(O)-(Arg-Gly))-c(Cys-D-Ala-His-D-Phe-Arg-Trp-Cys)-NH2 (peptide) | – | – | – | 3560 | – | – |

| Substance | cAMP EC50 [1] | cAMP EC50 [2] [nM] | cAMP EC50 [3] [nM] | cAMP EC50 [4] [nM] | cAMP Kb [2] | cAMP Kb [3] |
| --- | --- | --- | --- | --- | --- | --- |
| Hydantoin(C(O)-(Arg-Gly))-c(Cys-D-Ala-His-D-Phe-Arg-Trp-Cys)-NH2 (peptide; unit assumed) | 8.81 nM | 18.2 | 0.503 | – | – | – |
| Hydantoin(C(O)-(Arg-Gly))-c(Cys-Glu-His-D-Phe-Arg-Trp-Cys)-NH2 (peptide) | – | – | – | 4010 | – | – |
| Hydantoin(C(O)-(Arg-Gly))-c(Cys-Glu-His-D-Phe-Arg-Trp-Cys)-NH2 (peptide; unit assumed) | 8.83 nM | 7.86 | 0.0979 | – | – | – |
| Hydantoin(C(O)-(D-Ala-Gly))-c(Cys-D-Ala-His-D-Phe-Arg-Trp-Cys)-NH2 (peptide; unit assumed) | 4.7 nM | 2.22 | 0.309 | – | – | – |
| Hydantoin(C(O)-(D-Ala-Nle))-c(Cys-D-Ala-His-D-Phe-Arg-Trp-Cys)-NH2 (peptide; unit assumed) | – | 2.56 | 1.47 | – | – | – |
| Hydantoin(C(O)-(D-Arg-Gly))-c(Cys-D-Ala-His-D-Phe-Arg-Trp-Cys)-NH2 (peptide; unit assumed) | 11.5 nM | 23.2 | 0.513 | – | – | – |
| Hydantoin(C(O)-(D-Arg-Gly))-c(Cys-Glu-His-D-Phe-Arg-Trp-Cys)-NH2 (peptide; unit assumed) | 18 nM | 17.1 | 0.16 | – | – | – |
| Hydantoin(C(O)-(Gly-Arg))-c(Cys-D-Ala-His-D-Phe-Arg-Trp-Cys)-NH2 (peptide) | – | – | – | 3610 | – | – |
| Hydantoin(C(O)-(Gly-Arg))-c(Cys-D-Ala-His-D-Phe-Arg-Trp-Cys)-NH2 (peptide; unit assumed) | 8.85 nM | 5.17 | 0.599 | – | – | – |
| Hydantoin(C(O)-(Gly-Arg))-c(Cys-Glu-His-D-Phe-Arg-Trp-Cys)-NH2 (peptide) | – | – | – | 335 | – | – |
| Hydantoin(C(O)-(Gly-Arg))-c(Cys-Glu-His-D-Phe-Arg-Trp-Cys)-NH2 (peptide; unit assumed) | 9.97 nM | 3.63 | 0.0687 | – | – | – |
| Hydantoin(C(O)-(Gly-D-Arg))-c(Cys-D-Ala-His-D-Phe-Arg-Trp-Cys)-NH2 (peptide) | – | – | – | 9840 | – | – |
| Hydantoin(C(O)-(Gly-D-Arg))-c(Cys-D-Ala-His-D-Phe-Arg-Trp-Cys)-NH2 (peptide; unit assumed) | 7.53 nM | 11.6 | 0.435 | – | – | – |
| Hydantoin(C(O)-(Gly-D-Arg))-c(Cys-Glu-His-D-Phe-Arg-Trp-Cys)-NH2 (peptide; unit assumed) | 12.9 nM | 10.3 | 0.125 | – | – | – |
| Hydantoin(C(O)-(Gly-Gly))-c(Cys-D-Ala-His-D-Phe-Arg-Trp-Cys)-NH2 (peptide) | – | – | – | 201 | – | – |
| Hydantoin(C(O)-(Gly-Gly))-c(Cys-D-Ala-His-D-Phe-Arg-Trp-Cys)-NH2 (peptide; unit assumed) | 14.2 nM | 2.46 | 0.336 | – | – | – |
| Hydantoin(C(O)-(Gly-Gly))-c(Cys-Glu-His-D-Phe-Arg-Trp-Cys)-NH2 (peptide) | – | – | – | > 10000 | – | – |
| Hydantoin(C(O)-(Gly-Gly))-c(Cys-Glu-His-D-Phe-Arg-Trp-Cys)-NH2 (peptide; unit assumed) | 124 nM | 8.05 | 0.214 | – | – | – |
| Hydantoin(C(O)-(Leu-Nle))-c(Cys-D-Ala-His-D-Phe-Arg-Trp-Cys)-NH2 (peptide; unit assumed) | – | 9.68 | 1.83 | – | – | – |
| Hydantoin(C(O)-(Nle-Gly))-c(Cys-D-Ala-His-D-Phe-Arg-Trp-Pen)-NH2 (peptide) | – | – | – | 352 | – | – |
| Hydantoin(C(O)-(Nle-Gly))-c(Cys-D-Ala-His-D-Phe-Arg-Trp-Pen)-NH2 (peptide; unit assumed) | 17 nM | 21.5 | 0.584 | – | – | – |
| Hydantoin(C(O)-(Nle-Gly))-c(Cys-Glu-His-D-Phe-Arg-Trp-Cys)-NH2 (peptide) | – | – | – | > 10000 | – | – |
| Hydantoin(C(O)-(Nle-Gly))-c(Cys-Glu-His-D-Phe-Arg-Trp-Cys)-NH2 (peptide; unit assumed) | 54.3 nM | 12.2 | 0.177 | – | – | – |
| Hydantoin(C(O)-(Val-Nle))-c(Cys-D-Ala-His-D-Phe-Arg-Trp-Cys)-NH2 (peptide; unit assumed) | – | 4.61 | 0.977 | – | – | – |
| Nle-c(Asp-His-D-2-Nal-Arg-Trp-Lys)-β-Ala-Tyr-Gly-Arg-Lys-Lys-Arg-Arg-Gln-Arg-Arg-Arg-NH2 (peptide; in nM (unit assumed)) | – | – | – | – | 207 | 18.5 |
| c[Hydantoin(C(O)-(Glu-D-Ala))-His-D-Phe-Arg-Trp-Lys]-NH2 (peptide; unit assumed) | – | 22.3 | 3.62 | – | – | – |
| c[Hydantoin(C(O)-(Ile-Cys))-D-Ala-His-D-Phe-Arg-Trp-Cys]-NH2 (peptide; unit assumed) | – | 8.51 | 1.85 | – | – | – |
